Values quoted from earlier work, collected in publication PMC2645917 (Journal of medicinal chemistry, 2008).

Details: in vivo, iv

In the case of exenatide, the “Half-life after i.v. injection” value is given as 26 min.
